Assay results taken from the supplement of paper PMC9170038.

System: MS2 coat protein
Experiment: apparent KD of MS2 coat protein; designed switch direction (-1 OFF switch, 1 ON switch): -1; higher = weaker reporter binding
Summary of the method: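 Transcription of designed RNA switches on Illumina chips was done by stalled E. coli RNA polymerase. SNAP-549-labelled MS2 coat protein was then titrated in doubling steps from 0.7 or 1.5 nM to 3 µM, with steps of 0.8–1.5 h at the lowest and 10–20 min at the highest concentration. The per-design median over clusters of curve-fitted normalised fluorescence is reported as apparent KD.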

[1] = Eterna round: R95, input ligand: FMN 200 uM
[2] = Eterna round: R95, input ligand: microRNA oligo, concentration not stated
[3] = Eterna round: R95, input ligand: none
[4] = input ligand: microRNA oligo, concentration not stated

Sequence	apparent KD of MS2 coat protein [1]	apparent KD of MS2 coat protein [2]	apparent KD of MS2 coat protein [3]	apparent KD of MS2 coat protein (input ligand: FMN 200 uM)	apparent KD of MS2 coat protein (input ligand: none)	apparent KD of MS2 coat protein [4]
CGUUCUCGAGUCAGGAUAUCGACUAAUUCCCAAGUCGAGAAGGGACAUGAGGAUCACCCAUGUAAAGAAAAGAA [Ainteedle] (puzzle: Brourd's mod of Exclusion 4)	118 nM	30.1 nM	30.3 nM			
CGUUGAUGAGGAUAUCGAUGUUAGUACAUGAGGAUCACCCAUGUUAUCCAAGUGUCGUUUCGAGAAGGUAUUGGAC [LRO-Ex5-20] (puzzle: Exclusion 5)		174 nM				
CUAAACGCAGGAUAUACAUGAGGAUCACCCAUGUUUGGCCAGUAAACAAGUCGUCUUAGUAGAAGGGCGUUUAG [Eternabot (Original) Solution 42] (Eterna round: R97, puzzle: Exclusion 3)				544 nM	40.1 nM	
CUAAAUCAUGUAGGAUAUGCGUGGCAAAGCUAUGCAGAAGGACAUGAGGAUCACCCAUGUGCUUCCGUCUGAGAACAGACGGUA [Mat - Exclusion NG 1 - Mod of JL - D23] (Eterna round: R96, puzzle: Exclusion NG 1)				306 nM	68.2 nM	49.6 nM
CUAAAUCAUGUAGGAUAUGCGUGGCGAAGCUAUGCAGAAGGACAUGAGGAUCACCCAUGUGCUUCCGUCUGAGUACAGACGGAA [Mat - Exclusion NG 1 - Mod of JL - D25] (Eterna round: R96, puzzle: Exclusion NG 1)				77.2 nM	232 nM	160 nM
CUAACAUGCUGGUGAUCAUACAUGAGGAUCACCCAUGUAACAAGCUUUUUGCUCGUCUUAAUUUAAUUGAUUACUAG [Stov1/8-A3] (Eterna round: R97, puzzle: Sensor, turn-off variant 1)				88.9 nM	113 nM	
CUAACGAAAGGAUAUAUGGCAUGAGACAUGAGGAUCACCCAUGUGAACCACCUACAGUACAUAGAAGGUUCGCUAG [Eternabot (Original) Solution 18] (Eterna round: R97, puzzle: Exclusion 5)				65.9 nM	94.6 nM	
CUAAUACAUCAGGAUAUCUUAGCCUAUAGCAUAAGAGAAGGGAUGACAUGAGGAUCACCCAUGUCAAAGGGUGA [eternacac ex6r4 sub20] (Eterna round: R97, puzzle: Exclusion 6)				304 nM	929 nM	
CUAAUAUAUCAGGAUAUGAUUAUAUGUGUUAGAUCAGAAGGGAUAACAUGAGGAUCACCCAUGUUGUGGAGUGA [JR_Ex6_Sub035] (Eterna round: R97, puzzle: Exclusion 6)				67.3 nM	64.2 nM	
CUACCCUGAGGAUAUCCACCGUGAUACAUGAGGAUCACCCAUGUUAAUGCCUGAGUUCCCGGAGAAGGCAGAUUCC [Megrez2] (Eterna round: R97, puzzle: Exclusion 5)				27.2 nM	30.5 nM	
CUAGAUCUUCGGAUCUAGUACAUGAGGAUCACCCAUGUGACGAGUAUAUCCUCAAACAAGCUUUUUGCUCGUCUUAU [Sensor v3 - Turn-off variant 1 - 21] (puzzle: Sensor v3, turn-off variant 1)	243 nM	237 nM	172 nM			
CUAGCGAUUGUAGGAUAUCGGACUGUUUCAGUCUGAGAAGGACAUGAGGAUCACCCAUGUGAUGGAUCGUGAGAUCCACGCUAG [JL ENG1 3.80] (Eterna round: R96, puzzle: Exclusion NG 1)				195 nM	27.9 nM	25.7 nM
CUAGCGAUUGUAGGAUAUCGGACUGUUUCAGUCUGAGAAGGACAUGAGGAUCACCCAUGUGGAGGAUCGUGAGAUCCACGCUAG [JL ENG1 3.81] (Eterna round: R96, puzzle: Exclusion NG 1)				136 nM	34.5 nM	24.6 nM
CUAGGGCACAAUUAAGCGCCCUAACAUGAGGAUCACCCAUGUCAGGAUAUGUAGGCAAAGACCCUACAGAAGGGACAUGUCCUA [Artileza] (Eterna round: R96, puzzle: Exclusion NG 3)				393 nM	69.2 nM	46.3 nM
CUAGUCCGAGGAUAUAUUAAGUGAAACAUGAGGAUCACCCAUGUUAUUUGAUGGAUGAAAAUAGAAGGCGGACUAG [Mat - Exclusion 5 - JL mod - D60] (puzzle: Exclusion 5)	27.8 nM	46.9 nM	58.5 nM			
CUAGUCCGAGGAUAUAUUAUGUGAAACAUGAGGAUCACCCAUGUAAUAUGAUGGAUGUAAAUAGAAGGCGGACUAG [Mat - Exclusion 5 - JL mod - D25] (puzzle: Exclusion 5)	37.9 nM	17.4 nM	36.1 nM			
CUAGUCCGAGGAUAUAUUAUGUGAUACAUGAGGAUCACCCAUGUUAUAUGAUGGAUAUUAAUAGAAGGCGGACUAG [Mat - Exclusion 5 - JL mod - D74] (puzzle: Exclusion 5)	58 nM	68.3 nM	88 nM			
CUAUAUUUAGGAUAUGUUCGGCUAGACAUGAGGAUCACCCAUGUGAGCCUAGGAGCAGCCACAGAAGGGAGUAUGU [Eternabot (L2) Solution 62] (Eterna round: R97, puzzle: Exclusion 5)				27.6 nM	32.8 nM	

Sequence	apparent KD of MS2 coat protein [1]	apparent KD of MS2 coat protein [2]	apparent KD of MS2 coat protein [3]	apparent KD of MS2 coat protein (input ligand: FMN 200 uM)	apparent KD of MS2 coat protein (input ligand: none)	apparent KD of MS2 coat protein [4]
CUAUGAGCUGAGGAUAUCUGCAGGUUGGGCCUGGGAGAAGGCGGCACAUGAGGAUCACCCAUGUGACCGAAAUA [Mod2 Ex6 A.17 by Nando] (Eterna round: R97, puzzle: Exclusion 6)				16.3 nM	12.7 nM	
CUAUGUUAGCAGGAUAUGCCAUUAUUCCUUUUCGCAGAAGGGCUUACAUGAGGAUCACCCAUGUUACAUUUCUU [JR_E6_Sub085] (puzzle: Exclusion 6)		13.3 nM				
CUAUUACGAGGAUAUGAUUUAAAUAACAUGAGGAUCACCCAUGUUUUUACGUUAUUAUGUUCAGAAGGCGUAUUGU [JR_E5_Sub025] (puzzle: Exclusion 5)		28 nM				
CUAUUCCGAGGAUAUACAUGAGGAUCACCCAUGUCGGGCCUCUGCGUUUAGCGCGAAAGUAGAAGGUGGGUUUC [JL Riri mod 9] (Eterna round: R96, puzzle: Exclusion 3)				35.5 nM	32 nM	26.8 nM
CUAUUCCGAGGAUAUACAUGAGGAUCACCCAUGUCGGGCCUCUGCGUUUAGCGCGAAAGUAGAAGGUGGGUUUC [JL Riri mod 9] (puzzle: Exclusion 3)		28.3 nM				
CUAUUGGCAGGAUAUGCUUUUUUUGACAUGAGGAUCACCCAUGUGAUGCAUUUUGGGUUUGCAGAAGGGCCUGAGU [JR_E5_Sub037] (puzzle: Exclusion 5)		64.9 nM				
CUAUUGUGAGGAUAUCAGUAGUAAUACAAUAGUAUUACUACUGAGAAGGCACAUGAGGAUCACCCAUGUUCCUU [Mat - Exclusion 4 - Mod of Omei - D76] (puzzle: Exclusion 4)		14.4 nM				
CUCAUGUGAGGAUAUAGUGCGUCUUCUAUUAUUAUUGAGUACUAGAAGGCACAUGAGGAUCACCCAUGUAGCAC [Ex4 - 3 - 45] (Eterna round: R96, puzzle: Exclusion 4)					57.6 nM	29.2 nM
CUCAUGUGAGGAUAUAGUGCGUCUUCUAUUAUUAUUGAGUACUAGAAGGCACAUGAGGAUCACCCAUGUAGCAC [Ex4 - 3 - 45] (puzzle: Exclusion 4)		41.9 nM				
CUCAUGUGUGAGGAUAUUAGAGCGAGCGUGUGAUAAGAAGGCACAACAUGAGGAUCACCCAUGUAGAGAGAGUG [Alacar 1st] (Eterna round: R97, puzzle: Exclusion 6)				28.9 nM	69.6 nM	
CUCAUGUUGGAGGAUAUAUUUGUCAACCGACCGAUAGAAGGCCACACAUGAGGAUCACCCAUGUCAUCCGGAGA [Eternabot (Original) Solution 50] (Eterna round: R97, puzzle: Exclusion 6)				28.3 nM	255 nM	
CUCCUACAUGAGGAUCACCCAUGUCAGGAUAUCUCAGUGGCGCCUAAAUGUGCCACCCAGAGAAGGGACGUGCA [Zainceve] (puzzle: Exclusion 1)		12.3 nM				
CUCCUCAUGGCGCCUAAACACAUGAGGAUCACCCAUGUACAGGCUUCUUGCCGUCUUAUAAUAAAACCGAGGAUGCG [Onleorqula] (puzzle: Sensor v3, turn-off variant 1)	43.8 nM	283 nM	47.3 nM			
CUCCUCGCUUAGGAUAUGUACACUUGCACCGUGACAGAAGGAAGCACUUGAGGAUCACCCAAGUGCCAGGGUGC [Geena] (Eterna round: R97, puzzle: Exclusion 6)				14.4 nM	16.7 nM	
CUCCUCGUGGCGCCUAAACACAUGAGGAUCACCCAUGUACAGGCUUUUUGCCGUCUUAUAAUAAAACCGAGGAGACG [Ataesarxe] (puzzle: Sensor v3, turn-off variant 1)	16.6 nM	18.8 nM	16.6 nM			
CUCGCAUUAGGAUAUACAUGAGGAUCACCCAUGUAUAAACCCAGGGUCAACGCCAUAUGUAGAAGGAGUAGCGA [Eternabot (L1) Solution 59] (Eterna round: R97, puzzle: Exclusion 3)				22.2 nM	17 nM	
CUCGGCUAAGGAUAUGCAUAGCGGGCCAAGUCUUCUCAAGUACAUGAGGAUCACCCAUGUAGAAGGUAGUUAAC [EX2 B.29] (Eterna round: R97, puzzle: Exclusion 2)				22.4 nM	24.5 nM	
